Source: publication PMC4278837, “A Cyclic Peptidic Serine Protease Inhibitor: Increasing Affinity by Increasing Peptide Flexibility” (PLoS ONE, 2014)

How the values were obtained:
huPA-H99Y-K143A (human) = assay: enzyme inhibition (steady state, chromogenic substrate S-2444); about 2 nM enzyme (purified or conditioned medium of transfected cells) pre-incubated 15 min with varied peptide in HBS (10 mM HEPES pH 7.4, 140 mM NaCl) with 0.1% BSA at 37°C; substrate about KM; fit for competitive inhibition; highest peptide concentration 400 µM
[1] = biological target: huPA-H99Y (full length human urokinase-type plasminogen activator with H99Y) (human); assay: as above
huPA-H99Y-R35A (human) = assay: as above
huPA-H99Y-V41A (human) = assay: as above
huPA-H99Y-Q192A (human) = assay: as above
[2] = biological target: huPA-H99Y (full length human urokinase-type plasminogen activator with H99Y) (human); assay: SPR; Biacore T200; uPA variant amine-coupled to a CM5 chip (about 500 RU); peptides injected in HBS with 0.1% BSA, 30 µL/min, 25°C, pH 7.4; 1:1 kinetic fit; KD = koff/kon
[3] = biological target: recombinant catalytic domain of huPA-H99Y (residues 159-411) (human) (UniProt P00749); assay: ITC; MicroCal ITC200; peptide injected into 5-50 µM huPA-H99Y catalytic domain; 20 mM sodium phosphate pH 7.4, 140 mM NaCl, 25°C; one-binding-site model

With Mupain-1 D9A (peptide) as the substance, how does the Ki (huPA-H99Y-K143A (human)) read?
The Ki was 8.74 µM.

What about the Ki [1] of the same substance?
Its Ki is 5.99 µM.

What about the Ki (huPA-H99Y-R35A (human)) of the same substance?
Its Ki is 2.68 µM.

What about the Ki (huPA-H99Y-V41A (human)) of the same substance?
The Ki was 7.2 µM.

And the Ki (huPA-H99Y-Q192A (human))?
The Ki was 4.85 µM.

And the Kd [2]?
The Kd was 1.41 µM.

What about the koff [2] of the same substance?
The koff was 0.366 s⁻¹.

And the kon [2]?
The kon was 260000 M⁻¹ s⁻¹.

What about the Kd [3] of the same substance?
Its Kd is 1.17 µM.

And the dH [3]?
The dH was -9.06 kcal/mol.

And the stoichiometry N [3]?
The stoichiometry N was 1.03.

With Mupain-1 L8A (peptide) as the substance, how does the Ki [1] read?
The Ki was 19.1 µM.

Which Ki [1] does the source give for Mupain-1 P2A (peptide) here?
The Ki was over 1000 µM.

Which Ki [1] does the source give for Mupain-1 R6A (peptide) here?
The Ki was over 1000 µM.

For Mupain-1 S5A (peptide), which Ki [1] is on record?
The Ki was over 1000 µM.

For Mupain-1 Y4A (peptide), which Ki [1] is on record?
The Ki was over 1000 µM.

With Mupain-1 Y7A (peptide) as the substance, how does the Ki [1] read?
Its Ki is 44 µM.

Which Ki (huPA-H99Y-K143A (human)) does the source give for mupain-1 (peptide) here?
Its Ki is 56.6 µM.

And the Ki (huPA-H99Y-R35A (human))?
Its Ki is 39.5 µM.

What about the Ki (huPA-H99Y-V41A (human)) of the same substance?
Its Ki is 32.4 µM.

And the Ki (huPA-H99Y-Q192A (human))?
Its Ki is 33.2 µM.

And the Kd [2]?
Its Kd is 14.1 µM.

And the koff [2]?
The koff was 0.802 s⁻¹.

What about the kon [2] of the same substance?
Its kon is 56900 M⁻¹ s⁻¹.

And the Kd [3]?
The Kd was 5.04 µM.

What about the dH [3] of the same substance?
Its dH is -8.72 kcal/mol.

And the stoichiometry N [3]?
The stoichiometry N was 1.09.
